Assay: Library plate screen on five test substrates (4-AAP, 12-pNCA)
Type: biochemical
Details: seven-crossover library, cell lysate, 20 mM H2O2
Procedure: These library plates were replicated and grown in 96 deep-well plates in 900 μL of LB media with 100 μg/ml ampicillin overnight at 30° C. and 250 rpm. 150 μL of this was then transferred to 850 μL of induction media (TB-media with final concentrations of 100 μg/ml ampicillin, 25 μg/ml thiamine, 0.5 mM δ-aminolevulinic acid and 0.6 mM IPTG). These were grown for 20-24 hours at 25° C. and 190 rpm, harvested by centrifugation at 5000×g for 8 minutes and frozen at -20° C. for at least 24 hours. Cells were resuspended using a pipetting robot (Multimek 96, Beckman) and lysed in 400 μL of Epps or Tris buffer (100 mM, pH 8.2) containing 0.8 mg/ml lysozyme and 2 units/mL DNaseI for 1 hour at 37° C. Plates were then spun for 8 minutes at 5000×g and 4° C. to pellet cell debris. 80 μL of lysate was transferred into 4 separate 96 well plates for each library plate. […] On one plate, high -throughput carbon monoxide spectroscopy was done in order to assess relative amounts of P450 (Otey, C. R. High-throughput carbon monoxide binding assay for cytochromes P450. In Directed Enzyme Evolution: Screening and Selection Methods, F. H. Arnold and […]. 137-139 (2003)) with 0.1 M sodium hydrosulfite being used in place of 0.4 M. The other three plates were used to assay activity on different substrates. Examples of assays that have been or could be used include the 4-AAP (Otey, C. R., and Joern, J. M. High-throughput screen for aromatic hydroxylation. In Directed Enzyme Evolution: Screening and Selection Methods, F. H. Arnold and […]. 141-148 (2003)), 12-pNCA (Schwaneberg et al., Anal. Biochem., 269:359-366 (1999), NBP assay ([…], et al., J Biomol Screen, 9:141-146 (2004)), 7-ethoxyresorufin (Sieber et al., Nat Biotechnol., 19:456-460 (2001)), vivid substrate assays (Marks et al., Assay Drug Dev Technol 1, 73-81 (2002); Marks et al., AAPS PharmSci 5, E18 (2003)), and purpald assays (Peters et al., J Am Chem Soc 125:13442-13450 (2003)). Since the heme domains were being used, the hydrogen peroxide was used to drive the reactions via the peroxide shunt (Cirino, P. C., and Arnold, F. H., Advanced Synthesis & Catalysis 344, 932-937 (2002)). The 4-AAP assay detects phenol-like compounds and consists of the addition of 40 μL of a 3.5× substrate solution (containing substrate concentrations dependent for each substrate) to 80 μL of lysate. […] Then a 7×(140 mM) H2O2 hydrogen peroxide solution was added resulting in a final concentration of 20 mM hydrogen peroxide. The reaction was mixed and left at room temperature without shaking for two hours and then quenched with 140 μL of 0.1 m NaOH and 4 M Urea. 38 μL of 0.6% 4-aminoantipyrine was added followed by blanking of the 96-well plate reader at 500 nm. 38 μL of 0.6% potassium persulfate was added and after 20 minutes the A500 was read. […]

Molecule | activity on test substrates incl. novel substrates (diphenyl ether, allyloxy-benzene)
Chimera F3748: chimera of the CYP102A1/A2/A3 seven-crossover library (protein, Chimeric Cytochrome P450 heme group polypeptide sequence from CYP102A1 (Bacillus megaterium); CYP102A2 (Bacillus subtilis) and CYP102A3 (Bacillus subtilis), chimera of the CYP102A1/A2/A3 seven-crossover library) KQASAIPQPKTYGPLKNLPHLEKEQLSQSLWRIADELGPIFRFDFPGVSSVFVSGHNLVAEVCDEERFDKSIEGALEKVRAFSGDGLATSWTHEPNWRKAHNILMPTFSQRAMKDYHEKMVDIATQLIQKWSRLNPNEEIDVADDMTRLTLDTIGLCGFNYRFNSFYRDQPHPFITSMVRALDEAMNKLQRANPDDPAYDENKRQFQEDIKVMNDLVDRMIAERKANPDENIKDLLSLMLYAKDPVTGETLDDENIRYQIITFLIAGHETTSGLLSFATYFLLKHPDKLKKAYEEVDRVLTDAAPTYKQVLELTYIRMILNESLRLWPTAPAFSLYAKEDTVLGGEYPISKGQPVTVLIPKLHRDQNAWGPDAEDFRPERFEDPSSIPHHAYKPFGNGQRACIGMQFALQEATMVLGLVLKHFELINHTGYELKIKEALTIKPDDFKITVKPRKTAAINVQRKEQA | activity that is novel
Chimera F37233: chimera of the CYP102A1/A2/A3 seven-crossover library (protein, Chimeric Cytochrome P450 heme group polypeptide sequence from CYP102A1 (Bacillus megaterium); CYP102A2 (Bacillus subtilis) and CYP102A3 (Bacillus subtilis), chimera of the CYP102A1/A2/A3 seven-crossover library) KQASAIPQPKTYGPLKNLPHLEKEQLSQSLWRIADELGPIFRFDFPGVSSVFVSGHNLVAEVCDEKRFDKNLGKGLQKVREFGGDGLATSWTHEPNWQKAHRILLPSFSQKAMKGYHSMMLDIAVQLIQKWARLNPNEAVDVPGDMTRLTLDTIGLCGFNYRFNSYYRDQPHPFITSMVRALDEAMNKLQRANPDDPAYDENKRQFQEDIKVMNDLVDSIIAERRANGDQDEKDLLARMLNVEDPETGEKLDDENIRFQIITFLIAGHETTSGLLSFATYFLLKHPDKLKKAYEEVDRVLTDAAPTYKQVLELTYIRMILNESLRLWPTAPAFSLYAKEDTVLGGEYPLEKGDELMVLIPQLHRDKTIWGDDVEEFRPERFENPSAIPQHAFKPFGNGQRACIGQQFALQEATMVLGLVLKHFELINHTGYELKIKEALTIKPDDFKITVKPRKTAAINVQRKEQA | activity that is novel
Chimera F37202: chimera of the CYP102A1/A2/A3 seven-crossover library (protein, Chimeric Cytochrome P450 heme group polypeptide sequence from CYP102A1 (Bacillus megaterium); CYP102A2 (Bacillus subtilis) and CYP102A3 (Bacillus subtilis), chimera of the CYP102A1/A2/A3 seven-crossover library) KQASAIPQPKTYGPLKNLPHLEKEQLSQSLWRIADELGPIFRFDFPGVSSVFVSGHNLVAEVCDEERFDKSIEGALEKVRAFSGDGLATSWTHEPNWRKAHNILMPTFSQRAMKDYHEKMVDIATQLIQKWSRLNPNEEIDVADDMTRLTLDTIGLCGFNYRFNSFYRDQPHPFITSMVRALDEAMNKLQRANPDDPAYDENKRQFQEDIKVMNDLVDRMIAERKANPDENIKDLLSLMLYAKDPVTGETLDDENIRYQIITFLIAGHETTSGLLSFAIYCLLTHPEKLKKAQEEADRVLTDDTPEYKQIQQLKYIRMVLNETLRLYPTAPAFSLYAKEDTVLGGEYPISKGQPVTVLIPKLHRDQNAWGPDAEDFRPERFEDPSSIPHHAYKPFGNGQRACIGMQFALQEATMVLGLVLKHFELINHTGYELKIKEALTIKPDDFKITVKPRKTAAINVQRKEQA | activity that is novel
A3: third parent P450 of the seven-crossover library (protein, listed as Bacillus subtilis) KQASAIPQPKTYGPLKNLPHLEKEQLSQSLWRIADELGPIFRFDFPGVSSVFVSGHNLVAEVCDEKRFDKNLGKGLQKVREFGGDGLATSWTHEPNWQKAHRILLPSFSQKAMKGYHSMMLDIATQLIQKWSRLNPNEEIDVADDMTRLTLDTIGLCGFNYRFNSFYRDSQHPFITSMLRALKEAMNQSKRLGLQDKMMVKTKLQFQKDIEVMNSLVDRMIAERKANPDENIKDLLSLMLYAKDPVTGETLDDENIRYQIITFLIAGHETTSGLLSFAIYCLLTHPEKLKKAQEEADRVLTDDTPEYKQIQQLKYIRMVLNETLRLYPTAPAFSLYAKEDTVLGGEYPISKGQPVTVLIPKLHRDQNAWGPDAEDFRPERFEDPSSIPHHAYKPFGNGQRACIGMQFALQEATMVLGLVLKHFELINHTGYELKIKEALTIKPDDFKITVKPRKTAAINVQRKEQA | no activity towards any of the substrates tested

Source: US8603949B2, “Libraries of optimized cytochrome P450 enzymes and the optimized P450 enzymes” (California Institute of Technology, priority 2003, dated 2013)
